Article PMC4479010

Biological target: GFP monomer (GFP 11 linked to the N terminus of GFP 1–10), net charge −3 [GFP: P42212]
Test: PAGE with 0.1% SDS + SEC; GFP oligomer mixture; SEC on Superdex 200 10/300 GL, 0.5 ml/min, 500 mM NaCl, 50 mM Tris pH 8.0 or PBS

- percent of expressed monomers polymerized to oligomers above the dimer: 50%
Substance: GFP monomer (GFP 11 linked to the N terminus of GFP 1–10), net charge −3 (from UniProt P42212 215-230; P42212 1-214) (designed binder)
